# According to IntAct's records for PubMed 31515488:
# B1: Notch homolog 2 N-terminal-like protein A (Homo sapiens), Q7Z3S9 (parent)
# chain: MCVTYHNGTGYCKCPEGFLGEYCQHRDPCEKNRCQNGGTCVAQAMLGKATCRCASGFTGEDCQYSTSHPCFVSRPCLNGGTCHMLSRDTYECTCQVGFTGKECQWTDACLSHPCANGSTCTTVANQFSCKCLTGFTGQKCETDVNECDIPGHCQHGGTCLNLPGSYQCQCLQGFTGQYCDSLYVPCAPSPCVNGGTCRQTGDFTFECNCLPETVRRGTELWERDREVWNGKEHDEN
# partner: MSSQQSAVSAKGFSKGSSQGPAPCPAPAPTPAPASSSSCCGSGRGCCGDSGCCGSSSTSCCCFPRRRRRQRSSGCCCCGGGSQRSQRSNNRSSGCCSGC
# B2: Elongin-A2 (Homo sapiens), Q8IYF1 (parent)
# chain: MAAGSTTLHAVEKLQVRLATKTEPKKLEKYLQKLSALPMTADILAETGIRKTVKRLRKHQHVGDFARDLAARWKKLVLVDRNTRPGPQDPEESASRQRFGEALQDQEKAWGFPENATAPRSPSHSPEHRRTARRTPPGQQRPHPRSHSREPRAERKCPRIAPADSGRYRASPTRTAPLRMPEGPEPAAPGKQPGRGHTHAAQGGPLLCPGCQGQPQGKAVVSHSKGHKSSRQEKRPLCAQGDWHSPTLIREKSCGACLREETPRMPSWASARDRQPSDFKTDKEGGQAGSGQRVPALEEAPDSHQKRPQHSHSNKKRPSLDGRDPGNGTHGLSPEEKEQLSNDRETQEGKPPTAHLDRTSVSSLSEVEEVDMAEEFEQPTLSCEKYLTYDQLRKQKKKTGKSATTALGDKQRKANESKGTRESWDSAKKLPPVQESQSERLQAAGADSAGPKTVPSHVFSELWDLSEAWMQANYDPLSDSDSMTSQAKPEALSSPKFREEAAFPGRRVNAKMPVYSGSRPACQLQVPTLRQQCAQVLRNNPDALSDVGEVPYWVLEPVLEGWRPDQLYRRKKDNHALVRETDELRRNHCFQDFKEEKPQENKTWREQYLRLPDAPEQRLRVMTTNIRSARGNNPNGREAKMICFKSVAKTPYDTSRRQEKSAGDADPENGEIKPASKPAGSSHTPSSQSSSGGGRDSSSSILRWLPEKRANPCLSSSNEHAAPAAKTRKQAAKKVAPLMAKAIRDYKRRFSRR
# B3: Alpha-ketoglutarate-dependent dioxygenase alkB homolog 3 (Homo sapiens), Q96Q83 (parent)
# chain: MEEKRRRARVQGAWAAPVKSQAIAQPATTAKSHLHQKPGQTWKNKEHHLSDREFVFKEPQQVVRRAPEPRVIDREGVYEISLSPTGVSRVCLYPGFVDVKEADWILEQLCQDVPWKQRTGIREDITYQQPRLTAWYGELPYTYSRITMEPNPHWHPVLRTLKNRIEENTGHTFNSLLCNLYRNEKDSVDWHSDDEPSLGRCPIIASLSFGATRTFEMRKKPPPEENGDYTYVERVKIPLDHGTLLIMEGATQADWQHRVPKEYHSREPRVNLTFRTVYPDPRGAPW
# B4: Protein FAM200C (Homo sapiens), Q8IZ13 (parent)
# chain: MSKKRKWDDDYVRYWFTCTTEVDGTQRPQCVLCNSVFSNADLRPSKLSDHFNRQHGGVAGHDLNSLKHMPAPSDQSETLKAFGVASHEDTLLQASYQFAYLCAKEKNPHTVAEKLVKPCALEIAQIVLGPDAQKKLQQVPLSDDVIHSRIDEMSQDILQQVLEDIKASPLKVGIQLAETTDMDDCSQLMAFVRYIKEREIVEEFLFCEPLQLSMKGIDVFNLFRDFFLKHKIALDVCGSVCTDGASSMLGENSEFVAYVKKEIPHIVVTHCLLNPHALVIKTLPTKLRDALFTVVRVINFIKGRAPNHRLFQAFFEEIGIEYSVLLFHTEMRWLSRGQILTHIFEMYEEINQFLHHKSSNLVDGFENKEFKIHLAYLADLFKHLNELSASMQRTGMNTVSAREKLSAFVRKFPFWQKRIEKRNFTNFPFLEEIIVSDNEGIFIAAEITLHLQQLSNFFHGYFSIGDLNEASKWILDPFLFNIDFVDDSYLMKNDLAELRASGQILMEFETMKLEDFWCAQFTAFPNLAKTALEILMPFATTYLCELGFSSLLHFKTKSRSCFNLSDDIRVAISKKVPRFSDIIEQKLQLQQKSL
# Variants of: B1
# Conditions: with crct1_human CRCT1, Q9UGL9
row,Variant,effect of a mutation on the interaction
1,A115T,with no effect

# Variants of: B2
# Conditions: with traf2_human TRAF2, Q12933
# Chain of traf2_human TRAF2, Q12933 (Q12933 whole entry): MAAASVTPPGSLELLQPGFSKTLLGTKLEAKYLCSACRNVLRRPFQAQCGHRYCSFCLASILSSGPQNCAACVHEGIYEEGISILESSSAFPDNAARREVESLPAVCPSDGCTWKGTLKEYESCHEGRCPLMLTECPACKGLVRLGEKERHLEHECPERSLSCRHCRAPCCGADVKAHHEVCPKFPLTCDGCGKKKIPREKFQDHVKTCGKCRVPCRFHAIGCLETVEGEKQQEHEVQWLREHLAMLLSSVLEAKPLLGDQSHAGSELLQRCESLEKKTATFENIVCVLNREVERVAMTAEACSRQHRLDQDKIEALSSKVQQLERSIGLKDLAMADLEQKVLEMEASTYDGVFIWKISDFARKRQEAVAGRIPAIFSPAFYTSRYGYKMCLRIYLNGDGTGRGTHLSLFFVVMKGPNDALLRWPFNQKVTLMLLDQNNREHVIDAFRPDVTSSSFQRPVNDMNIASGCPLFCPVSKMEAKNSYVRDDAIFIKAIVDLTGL
row,Variant,effect of a mutation on the interaction
1,T6S,with no effect
2,R179P,with no effect
3,C254F,with no effect
4,D302H,with no effect
5,A403S,with no effect
6,A446T,with no effect
7,R498Q,with no effect
8,G505R,with no effect

# Variants of: B3
# Conditions: with ikzf1_human IKZF1, Q13422
# Chain of ikzf1_human IKZF1, Q13422 (Q13422 whole entry): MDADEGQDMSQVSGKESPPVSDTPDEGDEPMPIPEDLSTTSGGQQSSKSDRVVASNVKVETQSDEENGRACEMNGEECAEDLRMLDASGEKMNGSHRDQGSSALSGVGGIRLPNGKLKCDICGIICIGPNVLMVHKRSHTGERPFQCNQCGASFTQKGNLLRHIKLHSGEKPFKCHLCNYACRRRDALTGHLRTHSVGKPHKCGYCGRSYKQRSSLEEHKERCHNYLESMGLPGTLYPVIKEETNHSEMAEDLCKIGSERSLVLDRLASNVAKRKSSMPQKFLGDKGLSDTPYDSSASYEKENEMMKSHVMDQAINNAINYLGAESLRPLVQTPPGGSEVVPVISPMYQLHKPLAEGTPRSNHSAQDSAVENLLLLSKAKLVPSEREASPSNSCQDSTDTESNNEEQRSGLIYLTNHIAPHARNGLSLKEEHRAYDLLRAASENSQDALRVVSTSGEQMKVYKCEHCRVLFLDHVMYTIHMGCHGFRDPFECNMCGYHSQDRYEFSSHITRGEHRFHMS
row,Variant,effect of a mutation on the interaction
1,R213C,with no effect
2,N226S,with no effect

# Variants of: B4
# Conditions: with mt21a_human METTL21A
row,Variant,effect of a mutation on the interaction
1,M248K,disrupting interaction strength
